This note sets out measurements from paper PMC8395731.

pKd: −log10 of the molar value.

The assay addresses 6xHis-tagged mTOR fragment ∆N-FAT-M (human) (UniProt P42345). Description: BLI; BLItz; His-tagged mTOR fragments (1 µM) immobilised on Ni-NTA biosensors, tagless RHEB as analyte (0.5 and 1 µM, or 0.05 and 0.1 µM for ∆ATP), no GTP; 10 mM HEPES pH 7.4, 100 mM NaCl, 0.02% Tween-20, 5 mg/mL BSA, 25 °C; global 1:1 fit. (In general: In BLI a coated tip is dipped into the sample, and binding shifts an interference pattern.)

With “6xHis-tag cleaved-RHEB (from UniProt Q15382 1-169) (natural protein)”, the pKd (commonly the Kd on a negative log10 scale, so that one unit is a factor of ten) is 5.90.
